Measured values as given in US20260232840A1 (UNIVERSITY OF BRITISH COLUMBIA, published 2026).

Key:
aggregated SOD1 [1] = target: T1, aggregated SOD1 (UniProt P00441 2-154); experiment: indirect ELISA; OD on aggregated SOD1 over OD on dimeric SOD1
T1 construct: Same protein as Dim SOD1, in a different conformational state; also called Agg SOD1
Description: (§1) Supernatants producing hybridoma cell cultures producing rabbit monoclonal antibodies are analyzed by indirect ELISA for antibody activity on plates coated with 1 μg/well of peptide or protein antigen. […] The binding of anti-SOD1 antibodies were also characterized by ratio analyzes.

aggregated SOD1 [2] = target: T1, aggregated SOD1; experiment: indirect ELISA; ratio of the EC50 values on aggregated and dimeric SOD1
Description: as §1

T1 sequence (P00441 2-154 limits assumed): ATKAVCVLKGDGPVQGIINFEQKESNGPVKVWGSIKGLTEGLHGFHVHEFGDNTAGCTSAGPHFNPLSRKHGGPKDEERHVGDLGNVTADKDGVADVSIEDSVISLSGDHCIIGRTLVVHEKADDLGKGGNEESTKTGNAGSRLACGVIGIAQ

B1: rabbit anti-SOD1 antibody A-7-58 H1/L1 (antibody, V domains shown)
VH: QSVEESGGRLVTPGTPLTLTCTVSGIDLSSSVMAWVRQAPGKGLEWIGIITNRGNRYYAKWAKGRFTISRTSTTVGLKITSPTTADTATYFCGRGSVWGPGTLVTVSS
VL: QVLTQTPASVSAAIGGTVTIKCQSSQSFLDDNDLAWYQKKPGRPPKRLIKSASTLDSGVPSRFSGSGSGTQFTLTISDVQCADAATYYCLGDYDCSVGDCSAFGGGTEVVVKG
notes: Rabbit monoclonal antibody; also called A-58 H1 + A-58 L1
- Ab conc (ng/mL) at peak agg/dim OD ratio (aggregated SOD1 [1]): 10.3 ng/mL
- Peak agg/dim OD ratio (aggregated SOD1 [1]): 12.7
- Ratio Agg/Dim SOD1 EC50 (aggregated SOD1 [2]): 30.4

B2: rabbit anti-SOD1 antibody A-7-63 H2/L1 (antibody)
heavy: QSVGESGGGLVTPGTPLTLTCTVSGFSLSSYGVSWVRQAPGKGLEYIGFISTRGNPYYASWAKGRFTISKTSTTVDLKITSPTTEDTATYFCAGATVVGDSIWGPGTLVTVSSGQPKAPSVFPLAPCCGDTPSSTVTLGCLVKGYLPEPVTVTWNSGTLTNGVRTFPSVRQSSGLYSLSSVVSVTSSSQPVTCNVAHPATNTKVDKTVAPSTCSKPTCPPPELLGGPSVFIFPPKPKDTLMISRTPEVTCVVVDVSQDDPEVQFTWYINNEQVRTARPPLREQQFNSTIRVVSTLPIAHQDWLRGKEFKCKVHNKALPAPIEKTISKARGQPLEPKVYTMGPPREELSSRSVSLTCMINGFYPSDISVEWEKNGKAEDNYKTTPAVLDSDGSYFLYSKLSVPTSEWQRGDVFTCSVMHEALHNHYTQKSISRSPGK
light: QVLTQTASSVSAAVGGTVTISCQSSQSVYKGYWQAWYQQKPGQPPKLLIYETSTLASGVPSRFSGSGSGTQFTLTISGVQCDDAATYYCAGGYSNNIYTFGGGTEVVVKGDPVAPTVLIFPPAADQVATGTVTIVCVANKYFPDVTVTWEVDGTTQTTGIENSKTPQNSADCTYNLSSTLTLTSTQYNSHKEYTCKVTQGTTSVVQSFNRGDC
notes: Rabbit monoclonal antibody; also called A-63 H2 + A-63 L1
- Ab conc (ng/mL) at peak agg/dim OD ratio (aggregated SOD1 [1]): 6.01 ng/mL
- Peak agg/dim OD ratio (aggregated SOD1 [1]): 10.7
- Ratio Agg/Dim SOD1 EC50 (aggregated SOD1 [2]): 26.7

B3: rabbit anti-SOD1 antibody A-7-63 H3/L1 (antibody)
heavy: QSVEESGGGLVTPGTPLTLTCTVSGFSLSSYGVSWVRQAPGKGLEYIGFISTRGNPYYASWAKGRFTISKTSTTVDLKITSPTTEDTATYFCAGATVVGDSIWGPGTLVTVSSGQPKAPSVFPLAPCCGDTPSSTVTLGCLVKGYLPEPVTVTWNSGTLTNGVRTFPSVRQSSGLYSLSSVVSVTSSSQPVTCNVAHPATNTKVDKTVAPSTCSKPTCPPPELLGGPSVFIFPPKPKDTLMISRTPEVTCVVVDVSQDDPEVQFTWYINNEQVRTARPPLREQQFNSTIRVVSTLPIAHQDWLRGKEFKCKVHNKALPAPIEKTISKARGQPLEPKVYTMGPPREELSSRSVSLTCMINGFYPSDISVEWEKNGKAEDNYKTTPAVLDSDGSYFLYSKLSVPTSEWQRGDVFTCSVMHEALHNHYTQKSISRSPGK
light: QVLTQTASSVSAAVGGTVTISCQSSQSVYKGYWQAWYQQKPGQPPKLLIYETSTLASGVPSRFSGSGSGTQFTLTISGVQCDDAATYYCAGGYSNNIYTFGGGTEVVVKGDPVAPTVLIFPPAADQVATGTVTIVCVANKYFPDVTVTWEVDGTTQTTGIENSKTPQNSADCTYNLSSTLTLTSTQYNSHKEYTCKVTQGTTSVVQSFNRGDC
notes: Rabbit monoclonal antibody; also called A-63 H3 + A-63 L1
- Ab conc (ng/mL) at peak agg/dim OD ratio (aggregated SOD1 [1]): 5.11 ng/mL
- Peak agg/dim OD ratio (aggregated SOD1 [1]): 11.6
- Ratio Agg/Dim SOD1 EC50 (aggregated SOD1 [2]): 32.8
